Test results from patent US8110672B2, “Promoter engineering and genetic control” (priority 2005, dated 2012).

Key:
[1] = test system: CAT; experiment: Chloramphenicol resistance of pZE-promoter-cat constructs (MIC on LB agar); assay type: cell-based, E. coli; conditions: lowest chloramphenicol concentration that inhibited growth; promoter driving cat, LB agar with kanamycin, overnight 37° C.
Procedure: pZE-promoter-cat plasmids were created by PCR of the CAT gene from pACYC184 using primers CAT_Sense_MluI: […] (SEQ ID NO: 6) and CAT_Anti_KpnI: […] (SEQ ID NO: 7) and ligated into the proper pZE-promoter construct which was previously digested by KpnI and MluI. Exponential-phase cultures grown in LB supplemented with kanamycin were plated onto LB agar supplemented with kanamycin and various concentrations of chloramphenicol ranging from 0 to 500 μg/ml. After overnight incubation at 37° C., the lowest concentration of chloramphenicol that inhibited the growth of a clone was recorded.
To verify the constitutive nature of all the promoters, each was redeployed into a new construct driving the reporter gene cat. Cultures bearing these constructs were assayed for resistance to chloramphenicol on a rich, solid-phase medium. […] Moreover, these conditions test the promoter library in contrasting medium and growth environments (liquid minimal medium vs. solid complex medium) further underscoring the constitutive nature of the library promoters.

[2] = test system: gfp transcript; experiment: Transcriptional analysis: quantitative RT-PCR of the gfp transcript; assay type: cell-based, E. coli; conditions: cultures grown 3 hours, relative level
Procedure: Cultures inoculated as previously were grown for 3 hours and the total RNA was extracted from a 1.5 mL sample with a commercial kit (RNEasy, Qiagen Corp). All samples were diluted to a final concentration of 20 μg/mL and stored at −20° C. A commercial kit for RT-PCR (iScript One-Step RT-PCR Kit with SYBR Green, Bio-Rad) was used with a CCD-equipped thermal cycler (iCycler, Bio-Rad) for RT-PCR of the gfp transcript. Primers (sense-[…] (SEQ ID NO: 4) and antisense-[…] (SEQ ID NO: 5)) were used at a final concentration of 100 nM and 20 ng of RNA was used as template in each 50 μL reaction. We performed duplicate cultures for each clone and duplicate extractions for each culture. The threshold cycles for each sample were calculated from the fluorescence data with proprietary software (Bio-Rad, Inc).
To characterize the promoter library directly at the transcriptional level, the relative mRNA levels of gfp transcripts in the above cultures were determined by quantitative RT-PCR. The high correlation between fluorescence and mRNA level (FIG. 4) confirmed that expression was transcriptionally controlled. The data was obtained where GFP fluorescence levels were modulated by the level of oxygen. In this way, selection for promoters, which had differential expression in high and low oxygen conditions was accomplished.

[3] = test system: gfp
Procedure: Shake flasks containing 50 mL of M9G/CAA medium were inoculated with 1% v/v of an overnight LB culture of a library clone. The culture turbidity (A600 nm) and fluorescence (Packard Fusion microplate fluorescence reader, Perkin-Elmer, Boston, Ma.) were monitored as a function of time. Fluorescence readings taken during the exponential growth phase were plotted as a function of turbidity. The best-fit slope to this line represents the exponential-phase steady-state concentration of GFP, fSS. Because fSS is affected by the cell growth rate, oxygen-dependent maturation constant of GFP, and the protease-mediated degradation of GFP as well as the promoter-driven synthesis of new GFP, it is not a suitable metric for promoter strength. […] Under this model and under the assumption that the rate constant of protease-mediated degradation is the same for mature GFP as its precursor polypeptide, P, the rate of promoter-driven production of GFP, can be expressed as in Equation 1.
In Equation 1, μ is the growth rate, m is maturation constant for oxygen-dependent fluorophore activation of GFP, D is the first-order rate constant for protease-mediated degradation. […] The parameters fSS and μ were measured separately for each member of the promoter library. P, in relative fluorescence units per absorbance unit per hour, was calculated from Equation 1 for each clone. […]

B1: PLTetO1: PLteto-1 promoter, sequence SEQ ID NO: 34, relative to which the mutated promoters are defined (nucleic acid)
DNA: CAATTCCGACGTCTAAGAAACCATTATTATCATGACATTAACCTATAAAAATAGGCGTATCACGAGGCCCTTTCGTCTTCACCTCGAGTCCCTATCAGTGATAGAGATTGACATCCCTATCAGTGATAGAGATACTGAGCACATCAGCAGGACGCACTGACC
modifications: mutant sequence of bacteriophage lambda tetO promoter
[1]
  Cm MIC: 338 µg/mL
[2]
  Relative mRNA: 1
[3]; P from Equation 1, pZE-promoter-gfp(ASV) plasmid, M9G/CAA medium, exponential phase, duplicate cultures
  Promoter Strength: 145,806.85 relative fluorescence units per absorbance unit per hour
[3]; average of the scaled mRNA and fluorescence data
  Average Promoter Metric: 0.8685
